The target in one assay is T1, human PD-L1 (human, UniProt Q9NZQ7 19-290).
T1 construct: whole, on cells; also called CD274; B7-H1
Kind of assay: flow cytometry on 293T cells transfected with human PD-L1, anti-rabbit Fc detection.

A further assay deals with T2, human PD-L2 (human, UniProt Q9BQ51 20-273).
T2 construct: whole, on cells; also called CD273; B7-DC
T2 sequence (looked up): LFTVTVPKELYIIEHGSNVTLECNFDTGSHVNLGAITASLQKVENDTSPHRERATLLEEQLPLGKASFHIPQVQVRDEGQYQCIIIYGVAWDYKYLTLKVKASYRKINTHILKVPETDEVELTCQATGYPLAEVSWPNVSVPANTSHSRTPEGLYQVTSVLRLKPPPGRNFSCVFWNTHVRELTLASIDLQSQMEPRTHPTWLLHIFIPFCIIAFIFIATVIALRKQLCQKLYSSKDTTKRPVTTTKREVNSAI
Kind of assay: flow cytometry on 293T cells transfected with human PD-L2, anti-rabbit Fc detection.

T1 sequence (Q9NZQ7 19-290): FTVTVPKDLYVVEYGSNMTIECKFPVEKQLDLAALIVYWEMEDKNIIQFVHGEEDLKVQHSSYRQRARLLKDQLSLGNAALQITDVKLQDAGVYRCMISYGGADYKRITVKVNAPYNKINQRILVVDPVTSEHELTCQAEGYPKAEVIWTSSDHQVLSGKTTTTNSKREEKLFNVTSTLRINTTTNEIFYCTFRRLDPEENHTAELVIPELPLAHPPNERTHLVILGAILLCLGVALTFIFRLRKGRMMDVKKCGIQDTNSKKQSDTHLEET
Experimental for human PD-L1: (§1) The results were analyzed by flow cytometry using a detection antibody against rabbit Fc (color lines) or isotype control (black line). […] Percentage of cells with positive staining (solid line) is shown with corresponding antibodies and isotype control (shaded). Data are representative of three independent experiments.
Experimental for human PD-L2: as §1

B1: sΔ42PD1Fc (soluble Δ42PD1 fused with the rabbit IgG Fc domain) (Fc fusion)
chain: LALLVVTEGDNATFTCSFSNTSESFVLNWYRMSPSNQTDKLAAFPEDRSQPGQDCRFRVTQLPNGRDFHMSVVRARRNDSGTYLCGAISLAPKAQIKESLRAELRVTERRAEVPTAHPSPSPRPAGQLEATNTKVDKTVAPSTCSKPMCPPPELLGGPSVFIFPPKPKDTLMISRTPEVTCVVVDVSQDDPEVQFTWYINNEQVRTARPPLREQQFNSTIRVVSTLPIAHQDWLRGKEFKCKVHNKALPAPIEKTISKARGQPLEPKVYTMGPPREELSSRSVSLTCMINGFYPSDISVEWEKNGKAEDNYKTTPTVLDSDGSYFLYSKLSVPTSEWQRGDVFTCSVMHEALHNHYTQKSISHSPGK
Regarding B1, the binding result is “no binding (tested: 0.5, 2, 5 and 20 µg/ml)” with human PD-L1; “no binding (tested: 0.5, 2, 5 and 20 µg/ml)” in the assay with human PD-L2.

The values above are taken from patent publication US20180312564A1 (VERSITECH, published 2018).
